From PMC5341950, “Antitumor activity of a novel anti-vascular endothelial growth factor receptor-1 monoclonal antibody that does not interfere with ligand binding” (Oncotarget, 2016)

Key:
[1] = biological target: T1, recombinant VEGFR-1/Fc chimera (UniProt P17948 27-758); experiment: ELISA; 96-well Maxisorp plates coated with 10 ug/ml sVEGFR-1; binding buffer PBS with 3% BSA, 1 mM CaCl2, 0.5 mM MgCl2; 2 ug/ml VEGFR-1/Fc, 4 ug/ml VEGFR-2/Fc or 1 ug/ml NRP-1/Fc added; detection with alkaline phosphatase-conjugated anti-human Fc antibody, absorbance at 405 nm; selected wells pre-incubated with 5 ug/ml D16F7 mAb for 30 min at room temperature; conditions: both partners purified
T1 construct: Vascular endothelial growth factor receptor-1 (VEGFR-1), extracellular region, fused with the Fc region of human immunoglobulins; Bought chimera; source: bought: R&D Systems

[2] = biological target: T2, recombinant VEGFR-2/Fc chimera (UniProt P35968 20-764); experiment: as above; conditions: both partners purified
T2 construct: Vascular endothelial growth factor receptor-2 (VEGFR-2), extracellular region, fused with the Fc region of human immunoglobulins; Bought chimera; source: bought: R&D Systems
T2 sequence (P35968 20-764, stated change not applied): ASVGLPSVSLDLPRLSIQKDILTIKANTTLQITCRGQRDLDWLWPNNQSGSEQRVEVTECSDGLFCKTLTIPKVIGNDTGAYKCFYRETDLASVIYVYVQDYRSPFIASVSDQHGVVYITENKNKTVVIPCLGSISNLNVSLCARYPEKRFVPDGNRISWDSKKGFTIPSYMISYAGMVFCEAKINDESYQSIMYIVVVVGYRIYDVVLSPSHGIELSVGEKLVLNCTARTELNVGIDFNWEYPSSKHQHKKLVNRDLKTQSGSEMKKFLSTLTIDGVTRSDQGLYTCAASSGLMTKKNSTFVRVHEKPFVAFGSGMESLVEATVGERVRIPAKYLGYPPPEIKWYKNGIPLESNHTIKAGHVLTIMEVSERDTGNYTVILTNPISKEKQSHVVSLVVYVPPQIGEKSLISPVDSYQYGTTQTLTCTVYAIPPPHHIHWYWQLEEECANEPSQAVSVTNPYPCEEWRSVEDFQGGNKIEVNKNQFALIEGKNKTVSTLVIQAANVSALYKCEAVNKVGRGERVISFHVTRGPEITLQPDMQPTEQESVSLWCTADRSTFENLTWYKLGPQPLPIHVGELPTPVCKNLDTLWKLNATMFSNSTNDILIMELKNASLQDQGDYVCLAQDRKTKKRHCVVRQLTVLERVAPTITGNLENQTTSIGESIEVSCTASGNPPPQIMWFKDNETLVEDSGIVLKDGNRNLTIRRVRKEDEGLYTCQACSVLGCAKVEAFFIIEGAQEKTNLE

binding result [1]: binds | binding result [2]: binds
B1: native human soluble VEGFR-1 (sVEGFR-1) (receptor, UniProt P17948-2 27-687, looked up)
chain: SKLKDPELSLKGTQHIMQAGQTLHLQCRGEAAHKWSLPEMVSKESERLSITKSACGRNGKQFCSTLTLNTAQANHTGFYSCKYLAVPTSKKKETESAIYIFISDTGRPFVEMYSEIPEIIHMTEGRELVIPCRVTSPNITVTLKKFPLDTLIPDGKRIIWDSRKGFIISNATYKEIGLLTCEATVNGHLYKTNYLTHRQTNTIIDVQISTPRPVKLLRGHTLVLNCTATTPLNTRVQMTWSYPDEKNKRASVRRRIDQSNSHANIFYSVLTIDKMQNKDKGLYTCRVRSGPSFKSVNTSVHIYDKAFITVKHRKQQVLETVAGKRSYRLSMKVKAFPSPEVVWLKDGLPATEKSARYLTRGYSLIIKDVTEEDAGNYTILLSIKQSNVFKNLTATLIVNVKPQIYEKAVSSFPDPALYPLGSRQILTCTAYGIPQPTIKWFWHPCNHNHSEARCDFCSNNEESFILDADSNMGNRIESITQRMAIIEGKNKMASTLVVADSRISGIYICIASNKVGTVGRNISFYITDVPNGFHVNLEKMPTEGEDLKLSCTVNKFLYRDVTWILLRTVNNRTMHYSISKQKMAITKEHSITLNLTIMNVSLQDSGTYACRARNVYTGEEILQKKEITIRGEHCNKKAVFSRISKFKSTRNDCTTQSNVKH
notes: The methods call it 'Native human sVEGFR-1'; also called recombinant sVEGFR-1; source: bought: ReliaTech
